The values that follow come from US20100092497A1, “METHODS OF IMMUNE OR HAEMATOLOGICAL ENHANCEMENT, INHIBITING TUMOUR FORMATION OR GROWTH, AND TREATING OR PREVENTING CANCER” (priority 2006, published 2010).

Test [1] relates to EL-4 T cell thymic lymphoma. The test can be described thus: EL-4 tumour challenge in mice fed experimental diets (tumour growth, rejection, response to paclitaxel). It counts as in vivo, C57BL/6 mice. The note with it: for tumour response after paclitaxel: paclitaxel 30 mg/Kg i.p. at ~0.6 cm; for rank of efficacy in sensitising tumours to paclitaxel: diet 20 g Lf per 2.4 Kg plus paclitaxel 30 mg/Kg.

In the next test the test system is EL-4 target cells. Nature of the test: Anti-tumour cytolytic activity of splenocytes (CTL assay). The class given is cell-based, mouse. The note with it: for increase in anti-tumour cytolytic activity of splenocytes compared to control mice: Example 1, day 77; for increase in anti-tumour cytolytic activity of splenocytes: Example 2, after paclitaxel. The method, then: Splenocytes were harvested 28 days following tumour cell injection, as specified. They were incubated at 37° C. with EL-4 target cells in graded E:T ratios in 96-well round-bottom plates. After a 4-hour incubation, 50 μl of supernatant was collected, and lysis was measured using the Cyto Tox 96 Assay Kit (Promega, Madison, Wis., USA). Background controls for non-specific target and effector cell lysis were included. After background subtraction, percentage of cell lysis was calculated using the formula: 100×(experimental-spontaneous effector-spontaneous target/maximum target-spontaneous target).

Another test relates to IL-18. To be noted: as reported in WO 03/099323; cited from earlier work.
Where [2] appears, read: 20 g Lf per 2.4 Kg diet in combination with paclitaxel treatment.

B1: Fe-saturated Lf: Bovine lactoferrin of ~100% Fe saturation prepared with ferric nitrilo-triacetate (protein, UniProt P24627 20-708, looked up)
Lactotransferrin: APRKNVRWCTISQPEWFKCRRWQWRMKKLGAPSITCVRRAFALECIRAIAEKKADAVTLDGGMVFEAGRDPYKLRPVAAEIYGTKESPQTHYYAVAVVKKGSNFQLDQLQGRKSCHTGLGRSAGWIIPMGILRPYLSWTESLEPLQGAVAKFFSASCVPCIDRQAYPNLCQLCKGEGENQCACSSREPYFGYSGAFKCLQDGAGDVAFVKETTVFENLPEKADRDQYELLCLNNSRAPVDAFKECHLAQVPSHAVVARSVDGKEDLIWKLLSKAQEKFGKNKSRSFQLFGSPPGQRDLLFKDSALGFLRIPSKVDSALYLGSRYLTTLKNLRETAEEVKARYTRVVWCAVGPEEQKKCQQWSQQSGQNVTCATASTTDDCIVLVLKGEADALNLDGGYIYTAGKCGLVPVLAENRKSSKHSSLDCVLRPTEGYLAVAVVKKANEGLTWNSLKDKKSCHTAVDRTAGWNIPMGLIVNQTGSCAFDEFFSQSCAPGADPKSRLCALCAGDDQGLDKCVPNSKEKYYGYTGAFRCLAEDVGDVAFVKNDTVWENTNGESTADWAKNLNREDFRLLCLDGTRKPVTEAQSCHLAVAPNHAVVSRSDRAAHVKQVLLHQQALFGKNGKNCPDKFCLFKSETKNLLFNDNTECLAKLGGRPTYEEYLGTEYVTAIANLKKCSTSPLLEACAFLTR
modifications: iron-saturated (holo)
notes: Bovine lactoferrin of ~100% Fe saturation prepared with ferric nitrilo-triacetate
Consider B1, for which the “tumour response after paclitaxel in mice on Lf diet” value in test [1] (Example 1, diet 20 g Lf per 2.4 Kg plus paclitaxel 30 mg/Kg i.p. at tumours ~0.6 cm) was “regressed to less than half their size within two weeks of administering paclitaxel, and disappeared altogether a week later”. Also, the “mice that completely rejected the tumour challenge” value is “one of ten” in test [1] (Example 1, diet with 20 g of Lf per 2.4 Kg, ten mice); “one of ten” in test [1] (Example 2, 1 g Fe-Lf diet); “two of ten” in test [1] (Example 2, 5 g Fe-Lf diet); “three of ten” in test [1] (Example 2, 25 g Fe-Lf diet). The “tumour growth rate compared to control diet” value in test [1] (Example 2, 5 and 25 g per 2.4 Kg of diet) is given as “grew significantly (p<0.05 at days 35-49) more slowly”; in test [1] (Example 2, lowest and highest doses (1 and 100 g per 2.4 Kg of diet)) it was “did not differ greatly from that of mice fed the control diet”. Moreover, the “tumour response after paclitaxel” value in test [1] (Example 2, 100 g per 2.4 Kg of diet) was “regressed over two weeks, but then re-grew”; in test [1] (Example 2, all but the 100 g Fe-Lf diet (1, 5, 25 g per 2.4 Kg)), “rapidly regressed and completely disappeared over the following three to four weeks”. Besides, the entries for the “increase in anti-tumour cytolytic activity of splenocytes compared to control mice” value (“increase … to control mice” below) in the test with EL-4 target cells (setting [2]) and in the test on EL-4 target cells (the one mouse which completely resisted the tumour challenge) were 6.5 fold and 6 fold, respectively. Also, the “increase in anti-tumour cytolytic activity of splenocytes” value in the test with EL-4 target cells (5 g diet) is 6.7 fold; with EL-4 target cells (25 g diet) it was 7 fold; in the test on EL-4 target cells (100 g diet) it was 1.5 fold. For the same molecule, the “increase in anti-tumour cytolytic activity of splenocytes, agent by itself” value in the test with EL-4 target cells (Example 4, high dose vitamin D (45.2 mg/Kg) by itself or Fe-saturated Lf) turned out to be 1.9 fold.

B2: 50% Fe-saturated Lf: Bovine lactoferrin supplemented with Fe to ~50% saturation (protein, UniProt P24627 20-708, looked up)
Lactotransferrin: B1 Lactotransferrin
modifications: ~50% iron-saturated
As to B2, the “rank of efficacy in sensitising tumours to paclitaxel” value (“rank of efficacy” for short) in test [1] (Example 1) is recorded as 50% Fe-saturated Lf>native Lf>apoLf. The “increase … to control mice” value in the test on EL-4 target cells (setting [2]) is recorded as 1.5 fold.

B3: native Lf: Bovine lactoferrin of greater than 90% purity from Fonterra, native Fe saturation (protein, UniProt P24627 20-708, looked up)
Lactotransferrin: B1 Lactotransferrin
Turning to B3, the “rank of efficacy” value in test [1] (Example 1) was 50% Fe-saturated Lf>native Lf>apoLf. The “increase … to control mice” value in the test with EL-4 target cells (setting [2]) stood at 3.4 fold.

B4: apoLf: Bovine lactoferrin with Fe removed by citric acid chelation (protein, UniProt P24627 20-708, looked up)
Lactotransferrin: B1 Lactotransferrin
modifications: iron-free (apo)
notes: Bovine lactoferrin with Fe removed by citric acid chelation
For B4, the “rank of efficacy” value in test [1] (Example 1) is reported as 50% Fe-saturated Lf>native Lf>apoLf. In addition, the “increase … to control mice” value in the test on EL-4 target cells (setting [2]) was 2.4 fold.

B5: bovine lactoferrin: Single-chain iron-binding glycoprotein of 78 kDa present in bovine milk (protein, UniProt P24627 20-708, looked up)
Lactotransferrin: B1 Lactotransferrin
Take B5: in the test with IL-18, the “intestinal IL-18 levels compared to recombinant human lactoferrin” value was “lesser increase” and the “serum levels of IL-18” value is “did not increase”.
